# Laboratory results reported in patent US20230348564A1, “ANTI-CANCER PROTEINS” (UNICHEM LABORATORIES LTD, priority 2020, published 2023).
# B1: SEQ ID NO. 2: recombinant lectin; variant of the S. rolfsii lectin amino acid sequence (reported as Rec-2 in WO 2010/095143) (protein)
# chain: TYKITVRVYQTNPDAFFHPVEKTVWKYANGGTWTITDDQHVLTMGGSGTSGTLRFHADNGESFTATFGVHNYKRWCDIVTNLAADETGMVINQQYYSQKNREEARERQLSNYQVKNAKGRNFQIVYTEAEGNDLHANLIIG
# modifications: In vitro synthesis
# Tests used:
# PANC-1 = assay: Cell cycle analysis (PI stain); assay type: cell-based, Human; conditions: 24 h
# Description: (§1) The cell lines were maintained in DMEM+10% FBS (heat inactivated) at 37° C. with 5% CO2, and 95% humidity. Antibiotics Penicillin (100 U/mL) and Streptomycin (100 μg/mL) were added to the medium.
# (§2) The stock solution of recombinant lectin having the amino acid sequence of SEQ ID NO. […] Doxorubicin was used as positive control and stock solution was prepared in DMSO.
# (§3) Cells were counted using hemocytometer and plated in culture plates at density of 0.5×10^6 cells/well in DMEM+10% FBS in 6-well plates. Cells were incubated overnight to allow the cell recovery and exponential growth. Following overnight incubation, cells were sera starved in DMEM+1% FBS for 4 h. […] Untreated cells were included as Control group for test item. Cells treated with Doxorubicin were included as Positive Control group. DMSO treated cells were included as control group for Doxorubicin. After treatment, cells were incubated for a time period of 24 h. Following incubation, the pro-apoptotic effect by cell cycle was determined as follows: Cell cycle reagent contains PI stain, which stains DNA of cells in different phases of cell cycle; Sub(G0/G1), G1, S, G2 and M. Cells in Sub(G0/G1) phase correspond to apoptotic cells.
# (§4) Cells were gently harvested into pre-labeled centrifuge tubes and centrifuged at 450 g for 5 min, RT (low brake). The supernatants were removed carefully (not to touch the pellet) and discarded. 1 mL of 1×PBS was added to the pellet and resuspended gently to make homogenous suspension. Cells were centrifuged at 450 g for 5 min, RT (low brake) (washing step). The supernatant was carefully removed leaving behind approx 100 μL of PBS. Cells were resuspended gently yet thoroughly in residual PBS. Ice-cold 70% ethanol (300 μLI) was added drop-wise into cells in each tube while vortexing at low speed (fixation step). Cells were stored at 4° C. for 24 h prior to staining.
# (§5) Ethanol fixed cells were centrifuged at 450 g for 5 min, RT (low brake). The supernatant was carefully removed (not to touch the pellet) and discarded. (The pellet might not be visible but makes a thin film on surface of tube). 1 mL of 1×PBS was added into pellet and resuspended gently. Cells were incubated for 1 min at RT. Cells were centrifuged at 450 g for 5 min, RT (low brake) (washing step). The supernatant was removed carefully leaving behind approx 20 μL-50 μL of PBS. 200 μL of Cell Cycle reagent was added into each tube.
# (§6) Cells were resuspended gently, mixed and were incubated for 30 min, RT, Dark. The stained samples were transferred into 96-well plates and acquired on flow cytometer (Guava technologies). Percentage of cells in Sub (G0/G1) phase were determined. Fold increase in apoptotic cells (treated with Test Items) was determined as compared to Control (untreated cells).
# MDA-MB-231 = assay: Cell cycle analysis (PI stain); assay type: cell-based, Human; conditions: 24 h
# Description: as §1, §2, §3, §4, §5, §6
# [1] = system: PA-1 (Human Ovary carcinoma); assay: Calcein AM cytotoxicity assay; conditions: 48h
# Description: (§7) All the cancer cell lines were procured from National Centre for Cell Science, Pune (India). The cell lines were maintained under conditions as described in Table 21 below. The cell lines were sub-cultured by trypsinization followed by splitting the cell suspension into fresh flasks and supplementing with fresh culture medium.
# (§8) All the cell lines were grown in specified media at 37° C. with 95% Humidity and […].
# (§9) The cells were trypsinized, counted by Trypan blue method in Neuebauer's Chamber and plated in wells of flat bottom 96-well plate (dark walled plate, flat bottom) at the density corresponding to 10×10^3 cells/well/180 μl medium.
# (§10) Following overnight incubation, the cells were treated with test item (20 μL) at concentrations ranging from 2.5-80 μg/mL, so that the total volume in each well is 200 μL.
# (§11) The cells were incubated with the test items or positive control for a time period of 48h. Following incubation, the cell cytotoxicity was estimated using Calcein AM Cell Viability Assay Kit from R&D systems (Cat No. 4892-010-K).
# (§12) Fluorescence was measured at 485 nm (excitation/528 run (emission) spectra using Synergy HT micro plate reader.
# (§13) Percentage cytotoxicity wrt untreated cells was calculated using formula:
# (§14) Cytotoxicity=[(RFUuntreated−RFUsample)/RFUuntreated]*100
# (§15) RFU: relative fluorescence units
# (§16) IC50 value was calculated using Graph-Pad Prism version 4.01 software.
# [2] = system: THP-1 (Human acute monocytic leukemia); assay: Calcein AM cytotoxicity assay; conditions: 48h
# Description: as §7, §8, §9, §10, §11, §12, §13, §14, §15, §16
# [3] = system: SiHa (Human cervix squamous cell carcinoma); assay: Calcein AM cytotoxicity assay; conditions: 48h
# Description: as §7, §8, §9, §10, §11, §12, §13, §14, §15, §16
# [4] = system: MCF-10A (Human mammary epithelial cells); assay: Calcein AM cytotoxicity assay; conditions: 48h
# Description: as §7, §8, §9, §10, §11, §12, §13, §14, §15, §16
# [5] = system: MCF-7 (Human breast adenocarcinoma); assay: Calcein AM cytotoxicity assay; conditions: 48h
# Description: as §7, §8, §9, §10, §11, §12, §13, §14, §15, §16
# [6] = system: HT-29 (Human Colorectal adenocarcinoma); assay: Calcein AM cytotoxicity assay; conditions: 48h
# Description: as §7, §8, §9, §10, §11, §12, §13, §14, §15, §16
# [7] = system: A549 (Human lung carcinoma); assay: Calcein AM cytotoxicity assay; conditions: 48h
# Description: as §7, §8, §9, §10, §11, §12, §13, §14, §15, §16
# [8] = system: AGS (Human stomach adenocarcinoma); assay: Calcein AM cytotoxicity assay; conditions: 48h
# Description: as §7, §8, §9, §10, §11, §12, §13, §14, §15, §16
# [9] = system: KB (Human cervical carcinoma); assay: Calcein AM cytotoxicity assay; conditions: 48h
# Description: as §7, §8, §9, §10, §11, §12, §13, §14, §15, §16
molecule,measurement,setting,value
B1,"% Population of cells, Apoptotic Sub(G0/G1)",PANC-1; 2.5 μg/mL,1.60%
same,"% Population of cells, G0/G1",PANC-1; 2.5 μg/mL,38.89%
same,"% Population of cells, G2/M",PANC-1; 2.5 μg/mL,24.83%
same,"% Population of cells, S",PANC-1; 2.5 μg/mL,9.89%
same,"% Population of cells, Apoptotic Sub(G0/G1)",PANC-1; 5 μg/mL,2.54%
same,"% Population of cells, G0/G1",PANC-1; 5 μg/mL,40.09%
same,"% Population of cells, G2/M",PANC-1; 5 μg/mL,23.83%
same,"% Population of cells, S",PANC-1; 5 μg/mL,10.31%
same,Fold Increase (wrt Control) Apoptotic Sub(G0/G1),PANC-1; 5 μg/mL,1.4 fold
same,"% Population of cells, Apoptotic Sub(G0/G1)",PANC-1; 10 μg/mL,4.23%
same,"% Population of cells, G0/G1",PANC-1; 10 μg/mL,44.43%
same,"% Population of cells, G2/M",PANC-1; 10 μg/mL,23.92%
same,"% Population of cells, S",PANC-1; 10 μg/mL,10.15%
same,Fold Increase (wrt Control) Apoptotic Sub(G0/G1),PANC-1; 10 μg/mL,2.4 fold
same,"% Population of cells, Apoptotic Sub(G0/G1)",PANC-1; 20 μg/mL,3.92%
same,"% Population of cells, G0/G1",PANC-1; 20 μg/mL,44.24%
same,"% Population of cells, G2/M",PANC-1; 20 μg/mL,23.79%
same,"% Population of cells, S",PANC-1; 20 μg/mL,10.83%
same,Fold Increase (wrt Control) Apoptotic Sub(G0/G1),PANC-1; 20 μg/mL,2.2 fold
same,"% Population of cells, Apoptotic Sub(G0/G1)",PANC-1; 80 μg/mL,6.21%
same,"% Population of cells, G0/G1",PANC-1; 80 μg/mL,39.63%
same,"% Population of cells, G2/M",PANC-1; 80 μg/mL,27.41%
same,"% Population of cells, S",PANC-1; 80 μg/mL,9.58%
same,Fold Increase (wrt Control) Apoptotic Sub(G0/G1),PANC-1; 80 μg/mL,3.5 fold
same,"% Population of cells, Apoptotic Sub(G0/G1)",MDA-MB-231; 2.5 μg/mL,10.05%
same,"% Population of cells, G0/G1",MDA-MB-231; 2.5 μg/mL,65.21%
same,"% Population of cells, G2/M",MDA-MB-231; 2.5 μg/mL,12.97%
same,"% Population of cells, S",MDA-MB-231; 2.5 μg/mL,6.10%
same,Fold Increase (wrt Control) Apoptotic Sub(G0/G1),MDA-MB-231; 2.5 μg/mL,4.1 fold
same,"% Population of cells, Apoptotic Sub(G0/G1)",MDA-MB-231; 5 μg/mL,5.75%
same,"% Population of cells, G0/G1",MDA-MB-231; 5 μg/mL,61.99%
same,"% Population of cells, G2/M",MDA-MB-231; 5 μg/mL,15.40%
same,"% Population of cells, S",MDA-MB-231; 5 μg/mL,8.15%
same,Fold Increase (wrt Control) Apoptotic Sub(G0/G1),MDA-MB-231; 5 μg/mL,2.3 fold
same,"% Population of cells, Apoptotic Sub(G0/G1)",MDA-MB-231; 10 μg/mL,6.65%
same,"% Population of cells, G0/G1",MDA-MB-231; 10 μg/mL,60.71%
same,"% Population of cells, G2/M",MDA-MB-231; 10 μg/mL,15.50%
same,"% Population of cells, S",MDA-MB-231; 10 μg/mL,7.36%
same,Fold Increase (wrt Control) Apoptotic Sub(G0/G1),MDA-MB-231; 10 μg/mL,2.7 fold
same,"% Population of cells, Apoptotic Sub(G0/G1)",MDA-MB-231; 20 μg/mL,15.43%
same,"% Population of cells, G0/G1",MDA-MB-231; 20 μg/mL,55.66%
same,"% Population of cells, G2/M",MDA-MB-231; 20 μg/mL,13.35%
same,"% Population of cells, S",MDA-MB-231; 20 μg/mL,6.55%
same,Fold Increase (wrt Control) Apoptotic Sub(G0/G1),MDA-MB-231; 20 μg/mL,6.3 fold
same,"% Population of cells, Apoptotic Sub(G0/G1)",MDA-MB-231; 80 μg/mL,35.62%
same,"% Population of cells, G0/G1",MDA-MB-231; 80 μg/mL,42.49%
same,"% Population of cells, G2/M",MDA-MB-231; 80 μg/mL,10.14%
same,"% Population of cells, S",MDA-MB-231; 80 μg/mL,8.09%
same,Fold Increase (wrt Control) Apoptotic Sub(G0/G1),MDA-MB-231; 80 μg/mL,14.5 fold
same,IC50,[1],20.3 µg/mL
same,IC50,[2],>80 µg/mL
same,IC50,[3],>80 µg/mL
same,IC50,[4],>80 µg/mL
same,IC50,[5],>80 µg/mL
same,IC50,[6],42.0 µg/mL
same,IC50,[7],>80 µg/mL
same,IC50,[8],42.6 µg/mL
same,IC50,[9],18.4 µg/mL
